Measurements published in the supplement of paper PMC9170038.

Tested on: MS2 coat protein
Assay: apparent KD of MS2 coat protein, switch ON state; designed switch direction (-1 OFF switch, 1 ON switch): -1; higher = weaker reporter binding
Conditions: FMN input: 0 or 200 uM; Eterna round: R93 (includes R88 designs)
In short: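 Designed RNA switches were transcribed on-chip from Illumina sequencing clusters and titrated with SNAP-549-labelled MS2 coat protein in twofold steps from 0.7 or 1.5 nM up to 3 µM. Each step lasted 0.8–1.5 h at first and 10–20 min by the end, in 100 mM Tris-HCl pH 7.5, 80 mM KCl and 4 mM MgCl2, without or with constant ligand. Apparent KD is the median, for each design, of fits to normalised cluster binding curves.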

First: AACAGUACAGGAUAUACAUGAGGAUCACCCAUGUGAGACUUAAGUGGCGUACCACAAAGUAGAAGGGUACUGGA [JL Maslow Revisted mod 8]
Second: AUAAGUCGAGGAUAUACGAAAUGCUAGCGAAAGCUAGCAUAACAUGAGGAUCACCCAUGUAGAAGGCGACAAUA [Tetraloop hairpin BlockHead... 61% 3]
The “apparent KD of MS2 coat protein” value of the first is 3.7-fold higher: 84.1 nM for the first, 22.9 nM for the second.

First: CAGUACUGAGGAUAUACAUGAGGAUCACCCAUGUGUUCCAGCUAGGAAACUAGCACAUGUAGAAGGCAGUACUG [Ex3: 826]
Second: AAGAAGUCAGGAUAUGCCAGAGAUCAAGAAAGUGACGAAUAGCAGAAGGGACAUGAGGAUCACCCAUGUAAAGA [Opal 9]
The “apparent KD of MS2 coat protein” value of the first is 4.3-fold higher: 187 nM for the first, 43.5 nM for the second.

“AGGAAACAUGAGGAUCACCCAUGUGAGGAUAUAGGAAAGAAAAGAAAAGAAAGAAGAAUUAGAAGGCACAAGAA [Djet]” and “AAGAACGUAGGAUAUACAAAAUAAAAGAAAAGAAAGAAAGAACAUGAGGAUCACCCAUGUAGAAGGACGAAGAA [Sekhemrekhutawy Khabaw]” are within 1.5-fold of each other in “apparent KD of MS2 coat protein” value: 20.5 nM for the first, 21.6 nM for the second.

Compared with “UAAAAGCGAGGAUAUACAUGAGGAUCACCCAUGUGAAAGAAAAAUAAAAAAAAAAAAAGUAGAAGGCGCUAAAA [Ex 3 #2]”, “CGUUUGUUAGGAUAUAGCCACAUUACGAAUAAGUAGUGUGGCUAGAAGGAACAUGAGGAUCACCCAUGUAUGGG [Exclusion 4.3 (AU closing FMN)]” is 1.9-fold higher in “apparent KD of MS2 coat protein” value: 58.9 nM for the first, 110 nM for the second.

Compared with “AAAAAGUCAGGAUAUUCGGAAGGGAAAGCGCAAACCCAACCGAAGAAGGGACAUGAGGAUCACCCAUGUAAAAA [Ecls4-III]”, “AAGAUGUCAGGAUAUGCUUGUCGUCACAAAAGUGAUGACGAGCAGAAGGGACAUGAGGAUCACCCAUGUAAAGA [JL eternac mod 3]” is 3-fold higher in “apparent KD of MS2 coat protein” value: 49.6 nM for the first, 148 nM for the second.

“AGUCGGCGAGGAUAUACAUGAGGAUCACCCAUGUGAGAGAAUAUAGUGAGUUAGACAAGUAGAAGGCGCUGACA [JL Lego Mod 11]” and “AAAAAUGGAGGAUAUACAUGAGGAUCACCCAUGUGUGACUAUACUAAGCGCUCUUCAGGUAGAAGGCCAAAAAA [Gilly Gone Silly 17 - Jieux - Exclusion 3]” are within 1.5-fold of each other in “apparent KD of MS2 coat protein” value: 43.2 nM for the first, 43.8 nM for the second.

Going from “AAUUCACAUGAGGAUCACCCAUGUAAGGAUAUCGAAAAAAAACUAAACAAAAAACAAACGAGAAGGUACAAAAA [Exclusion 1 design 5]” to “AACAGUACAGGAUAUACAUGAGGAUCACCCAUGUGGGUGUUAAGUGGCGUACCACAAAGUAGAAGGGUACUGGA [JL In the Red CG]”, the “apparent KD of MS2 coat protein” value rises from 25.5 nM to 327 nM (13-fold).

Going from “UCCUCACAUGAGGAUCACCCAUGUUAGGAUAUGCCCGGCGGGUUCUGACCUGCCUAAAGCAGAAGGAACGUGCG [Cexequge]” to “AAGACUACAGGAUAUACAUGAGGAUCACCCAUGUAACUGACGGAUAGAUGACGGAGAAGUAGAAGGGUAGUCCA [Ruby 39]”, the “apparent KD of MS2 coat protein” value rises from 16.6 nM to 36.9 nM (2.2-fold).

Going from “AAAAAGUCAGGAUAUUCGGAUAGGAAAACGAAAACCUAUCCGAAGAAGGGACAUGAGGAUCACCCAUGUAAAAA [Ecls4-II]” to “AAAAACUGAGGAUAUACUUUGGGAAAAGAAAAGAUGAUGUUACAUGAGGAUCACCCAUGUAGAAGGCAGAAAAA [Mat - Exclusion 2 - Mod - D154]”, the “apparent KD of MS2 coat protein” value falls from 48.9 nM to 25.4 nM (1.9-fold).

Compared with “AAGAAUGCAGGAUAUACAUGAGGAUCACCCAUGUAAAAGAAAGAGGGAAAAGAGAAAAGUAGAAGGGCAAAGAA [Cleopatra III]”, “AGAAAGUGAGGAUAUCGAAGACUGUCGAAAAGACAGUCGAACGAGAAGGCACAUGAGGAUCACCCAUGUGAGGG [Mat - Exaclusion 4 - Eli mod - D67]” is 2.9-fold higher in “apparent KD of MS2 coat protein” value: 26.1 nM for the first, 76.3 nM for the second.

Going from “AAAAAACAUGAGGAUCACCCAUGUGAGGAUAUCCUGAAUGAAAUAAAAUAUCUCGAAAGGAGAAGGCGCAAAAA [Ex 1 May 33]” to “AUAGUACAUGAGGAUCACCCAUGUCAGGAUAUUCGAAAUGAAAAAAAAAAAAAGUGAAGGAGAAGGGACUAUAA [EX1 Malc#12]”, the “apparent KD of MS2 coat protein” value falls from 67.7 nM to 21.5 nM (3.1-fold).

“AAAAAACAUGAGGAUCACCCAUGUCAGGAUAUACGAUAAAAAAAAAAAAAAAAAAAAUGUAGAAGGGACAAAAA [Simple 1]” and “AAAAAGUCAGGAUAUGUAGCAAAAAGUGAUCCAAAAAAGCUACAGAAGGGACAUGAGGAUCACCCAUGUAAAAA [Ex4: 931]” are within 1.5-fold of each other in “apparent KD of MS2 coat protein” value: 60.3 nM for the first, 86.5 nM for the second.

Compared with “AAAAAUCGAGGAUAUACAUGAGGAUCACCCAUGUCAAAAAAUGACUACACAAAAGAAAGUAGAAGGCGAUAAAG [Mat - Exclusion 3 - Mayanna mod - D129]”, “AAAGAUGCAGGAUAUACAUGAGGAUCACCCAUGUUAGACCUGAAAAAGGGAAAAGAAAGUAGAAGGGCAUAAUA [Ex 3 May 31]” is 2-fold lower in “apparent KD of MS2 coat protein” value: 25 nM for the first, 12.8 nM for the second.

“AGACAUACAGGAUAUACAUAGGAAAAAAAAAAAAAAAUUCAACAUGAGGAUCACCCAUGUAGAAGGGUAUGUCA [Ex2 Design 172: Random 2]” and “AAAAAACAUGAGGAUCACCCAUGUCAGGAUAUCCGAAAAAAAAAAAAAAAAAGGCCUUGGAGAAGGGACAUUCC [Chica Displaced 7- Jieux - Exclusion 1]” are within 1.5-fold of each other in “apparent KD of MS2 coat protein” value: 65.5 nM for the first, 53.7 nM for the second.

First: CCCAUGUCAGGAUAUCAGUAGUAAAAAAAAAAAAUUACUACUGAGAAGGGACAUGAGGAUCACCCAUGUUCAAA [EX4 317: Super Stable 17]
Second: AAAAAGUCAGGAUAUACAUGAGGAUCACCCAUGUGAAAGAACGAUUAACGAAAAGCAAGUAGAAGGGACAAAAA [Ruby 79]
The “apparent KD of MS2 coat protein” value of the first is 1.5-fold higher: 33.4 nM for the first, 22.1 nM for the second.

“AAACCACAUGAGGAUCACCCAUGUCAGGAUAUGAACGAAAAUAAAUAAAAAUAAAAGUUCAGAAGGGACAAAAA [66%, Wbt, 13]” and “AAAAAACAUGAGGAUCACCCAUGUCAGGAUAUCCGGAAAAAAAAAAAAAAAAGGCGUUGGAGAAGGGACAUUCC [Chica Displaced 8 - Jieux - Exclusion 1]” are within 1.5-fold of each other in “apparent KD of MS2 coat protein” value: 42.3 nM for the first, 28.7 nM for the second.

“AAAAAACAUGAGGAUCACCCAUGUAAGGAUAUCUAAAAUAAAAGAAAAAUAAAGAAAAGGAGAAGGUACAUGGA [JL wbt mod 22]” and “UAAAGGAUAGGAUAUACAUGAGGAUCACCCAUGUGAAUAAAUAAAAAAAUAAAAUAAAGUAGAAGGAUCAAUAA [LROPPY Exclusion 3 - v04_deltaG=3.9 break up As]” are within 1.5-fold of each other in “apparent KD of MS2 coat protein” value: 22.9 nM for the first, 32.2 nM for the second.

“AACAGGUCAGGAUAUGUGGAAAAAAUAAAAAAAAUAAAAACACAGAAGGGACAUGAGGAUCACCCAUGUAAACA [May 23]” and “AGAGAGAGAGGAUAUACAUGAGGAUCACCCAUGUAAAAGAAAGAAAAGGGAAAGAAAAGUAGAAGGCUCAGAGA [Ruby 65]” are within 1.5-fold of each other in “apparent KD of MS2 coat protein” value: 47.2 nM for the first, 31.6 nM for the second.

Going from “AAUAAGUCAGGAUAUACUAAAGAAAUGAAAAGGGAUAAAGAACAUGAGGAUCACCCAUGUAGAAGGGACAAUAA [Sakir-Har]” to “AAAAAGCGAGGAUAUACAUAGCUAAGACAAAUAAGCAAGGGACAUGAGGAUCACCCAUGUAGAAGGCGCAAAAA [Exclusion 2-01... 60% 1]”, the “apparent KD of MS2 coat protein” value falls from 93.2 nM to 34.7 nM (2.7-fold).

First: ACCAAUGGAGGAUAUACAUGAGGAUCACCCAUGUUUAUCCUACAUAGGUGAAAAAUAUGUAGAAGGCCAUAGGA [EX3 238: Super Stable 38]
Second: AAAAAGGAAGGAUAUACGAACAUGUCAAAAGACGUGAAGGGACAUGAGGAUCACCCAUGUAGAAGGUCCAAAAA [JL Half Open 23]
The “apparent KD of MS2 coat protein” value of the first is 6.3-fold lower: 13.2 nM for the first, 83.4 nM for the second.

“AAGGGACAUGAGGAUCACCCAUGUCAGGAUAUGCAAAUAACAAACAACAAACAACAAAGCAGAAGGGACAAAAA [Mat - Exclusion 1 - Eli mod - D53]” and “AAGAAGCUAGGAUAUACAUGAAAGAAAGAAAAGAAAAGAAAACAUGAGGAUCACCCAUGUAGAAGGAGCUAGAA [EteRNA is fun!]” are within 1.5-fold of each other in “apparent KD of MS2 coat protein” value: 27.9 nM for the first, 33.1 nM for the second.

First: AAGUUAUUAGGAUAUACUUGUGCGAUUAAUACGUUGAUAGUACAUGAGGAUCACCCAUGUAGAAGGAAUAAAAA [JR_Exc002_Sub411]
Second: AGUGAGUGAGGAUAUGAGUGAACAACAAAACAAAUAACGACUCAGAAGGCACAUGAGGAUCACCCAUGUACACA [May 68]
The “apparent KD of MS2 coat protein” value of the first is 1.6-fold higher: 38.4 nM for the first, 24 nM for the second.

“AAAAUGUGAGGAUAUCUGGAUAGGAAAAAGAAAACCUAUCCAGAGAAGGCACAUGAGGAUCACCCAUGUAAAAA [JL cataway mod 4]” was tested, and the “apparent KD of MS2 coat protein” value was 121 nM.
